This is an account of results in patent publication US20230020729A1 (Memorial Sloan Kettering, published 2023).

T1: human Fc Receptor-Like 5 (FcRL5), full length, expressed on cells (human, UniProt Q96RD9 16-977)
T1 construct: also called CD307e; IRTA2
T1 sequence: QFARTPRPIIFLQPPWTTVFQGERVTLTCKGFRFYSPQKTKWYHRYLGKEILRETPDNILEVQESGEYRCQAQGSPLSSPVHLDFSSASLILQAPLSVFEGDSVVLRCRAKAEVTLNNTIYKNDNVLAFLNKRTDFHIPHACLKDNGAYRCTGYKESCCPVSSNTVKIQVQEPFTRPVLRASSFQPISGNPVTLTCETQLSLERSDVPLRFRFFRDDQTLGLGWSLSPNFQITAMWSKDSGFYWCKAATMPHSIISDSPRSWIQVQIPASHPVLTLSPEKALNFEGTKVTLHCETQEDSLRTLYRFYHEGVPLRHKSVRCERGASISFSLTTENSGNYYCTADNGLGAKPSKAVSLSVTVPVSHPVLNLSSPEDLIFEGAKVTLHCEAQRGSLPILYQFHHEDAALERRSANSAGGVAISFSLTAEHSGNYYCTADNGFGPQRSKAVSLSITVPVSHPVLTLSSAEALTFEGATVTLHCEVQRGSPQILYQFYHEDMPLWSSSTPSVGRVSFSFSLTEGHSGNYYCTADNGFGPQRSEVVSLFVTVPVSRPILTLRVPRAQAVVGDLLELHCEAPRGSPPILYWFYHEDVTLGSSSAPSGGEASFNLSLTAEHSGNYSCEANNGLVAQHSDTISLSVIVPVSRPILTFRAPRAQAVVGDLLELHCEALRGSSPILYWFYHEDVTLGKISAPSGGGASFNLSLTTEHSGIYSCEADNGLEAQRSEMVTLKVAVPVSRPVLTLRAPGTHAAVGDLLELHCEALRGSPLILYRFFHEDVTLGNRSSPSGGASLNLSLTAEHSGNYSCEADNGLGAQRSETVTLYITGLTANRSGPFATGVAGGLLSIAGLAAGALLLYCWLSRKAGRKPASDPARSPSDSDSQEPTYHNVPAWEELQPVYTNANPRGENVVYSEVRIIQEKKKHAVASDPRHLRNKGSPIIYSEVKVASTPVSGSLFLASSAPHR

B1: ET200-031 scFv (scFv)
scFv: SYVLTQPPSVSVAPGKTARITCGGNNIGSKSVHWYQQKPGQAPVLVIYYDSDRPSGIPERFSGSNSGNTATLTISRVEAGDEADYYCQVWDSSSDYVFGTGTKVTVLGSRGGGGSGGGGSGGGGSLEMAEVQLVETGGGLVKPGGSLRLSCAASGFTVSDYYMSWIRQAPGKGLEWISYISGSGNSIYYADSVKGRFTISRDNAKNSLDLQMTSLRAEDTAVYYCARSTKFDYWGQGTLVTVSS
notes: VL-linker-VH; screened as scFv phage clone; also called ET200-31
B2: ET200-044 scFv (scFv)
scFv: QSVLTQPPSVSVSPGQTATIACSGHKLGDKYASWYQQKSGQSPVLIIYQDNKRPSGIPERFSGSNSGNTATLTISGTQALDEADYYCQAWDSSTYVAFGGGTKLTVLGSRGGGGSGGGGSGGGGSLEMAQVQLQESGPGLVKPSETLSLTCVVSGGSISSSNWWSWVRQPPGKGLEWIGEIYHSGSPNYNPSLKSRVTISVDKSKNQFSLKLSSVTAADTAVYYCARMTTHTFGYDAWGQGTLVTVSS
notes: VL-linker-VH; screened as scFv phage clone
B3: ET200-006 scFv (scFv)
scFv: SYVLTQPPSVSVAPGKTARITCGGNNIGSKSVHWYQQKPGQAPVVVIHYDSDRPSGIPERFSGSNSGNTATLTISRVEAGDEADYYCQVWDSSSDHPYVFGTGTKVTVLGSRGGGGSGGGGSGGGGSLEMAEVQLVQSGAEVKKPGASVKVSCKASGYTFTTYGISWVRQAPGQGLEWMGWINTYNGHTNYAQKLQGRATMTADTSTNTAYMELRSLRSDDTAVYYCARVIYGSGDYWGQGTLVTVSS
notes: as for B2
B4: ET200-042 scFv (scFv)
scFv: QSVVTQPPSVSGAPGQTVTISCTGGSSNIGTGYFVNWYQQVPGKAPKLLILGNNNRPSGVPDRLSGSTSGTSASLAITGLQAEDEGTYYCQSYDSSLSGYVFGTGTKVTVLGSRGGGGSGGGGSGGGGSLEMAQVQLQQSGPGLVKPSQTLSLTCGISGDSVSTNSVAWHWIRQSPSRGLEWLGRTYYRSKWSNDYGVSVKSRITIIPDTSKNQFSLQLNSVTPEDTAVYYCARSSSWYQIFDYWGQGTLVTVSS
notes: as for B2
B5: ET200-041 scFv (scFv)
scFv: NFMLTQPHSVSGSPGKTVTISCTGSSGSIADNFVQWYQQRPGGVPTTVIFNDDERPSGVPDRFSGSIDTSSNSASLTISGLKTEDEADYYCQSYDNNNRGVFGGGTKLTVLGSRGGGGSGGGGSGGGGSLEMAQVQLVQSGAEVKKPGSSVKVSCKASGGTFSSYAISWVRQAPGQGLEWMGWMNPNSGNTGYAQKFQGRVTMTRNTSISTAYMELSNLRSEDTAVYYCARYYSYGYDWGQGTLVTVSS
notes: as for B2
B6: ET200-029 scFv (scFv)
scFv: QAVLTQPPSVSVAPGKTARVTCGGNNIGSESVHWYQQKPGQAPVLVIYYDTDRPSGIPERFSGSHSGTTATLTISRVEAGDEADYYCQVWDSSRDHVVFGGGTKLTVLGSRGGGGSGGGGSGGGGSLEMAQVQLVQSGGGVVQPGRSLRLSCAASGFTFSSYAMHWVRQAPGKGLEWVAVISYDGSNKYYADSVKGLFTISRDNSKNTLYLQMNSLRAEDTAVYYCARSYFTSGFYDYWGQGTLVTVSS
notes: as for B2
B7: ET200-040 scFv (scFv)
scFv: QSVLTQPPSVSGAPGQRVTISCTGSSSNIGAGYDVHWYQQLPGTAPKLLIYGNSNRPSGVPDRFSGSKSGTSASLAITGLQAEDEADYYCQSYDSSLSGYVFGTGTKVTVLGSRGGGGSGGGGSGGGGSLEMAQVQLVQSGAEVKKPGASVKVSCKVSGYTLTELSMHWVRQAPGKGLEWMGGFDPEDGETIYAQKFQGRVTMTEDTSTDTAYMELSSLRSEDTAVYYCARYSGVYYDWGQGTLVTVSS
notes: as for B2
B8: ET200-003 scFv (scFv)
scFv: QSVLTQPPSVSVSPGQTASISCSGNKLGTKYVYWYQKRPGQSPVLVMYEDNQRPSGIPERFSGSNSGNTATLTIRGTQTVDEADYYCQAWDSDTFVVFGGGTKVTVLGSRGGGGSGGGGSGGGGSLEMAEVQLVETGGGVVQPGRSLRLSCAASGFTFSSYGMHWVRQAPGKGLEWVAVISHDGSNKYYADSVKGRFTISRDNSKDTLYLQMNSLRGEDTAVYYCARSNQWSGYFSFDYWGQGTLVTVSS
notes: as for B2
B9: ET200-034 scFv (scFv)
scFv: QSVLTQPPSVSGAPGQRVTISCTGSTSNIGAGYDVHWYQQLPGTAPKLLINNNRNRPSGVPDRFSGSKSGTSATLGITGLQTGDEADYYCGTWDGSLTGAVFGGGTKLTVLGSRGGGGSGGGGSGGGGSLEMAEVQLVQSGAEVKKPGSSVKVSCKASGGTFSSYAISWVRQAPGQGLEWMGGIIPIFGTANYAQKFQGRVTITADESTSTAYMELSSLRSEDTAVYYCARGSALDHYDRWGQGTLVTVSS
notes: as for B2
B10: ET200-032 scFv (scFv)
scFv: LPVLTQPPSASGTPGQRVTISCSGSSSNVGSYTVNWYRQLPGTAPTLLIYNNNQRPSGVPDRFSDSKSGTSASLTISGLQPEDEADYYCAAWDDRLGGYVFGTGTKVTVLGSRGGGGSGGGGSGGGGSLEMAEVQLVQSGAEVKKPGESLKISCKGSGYSFTNYWIGWVRQMPGKGLEWMGIIYPGDSDTRYSPSFQGQVTISADKSISTAYLQWSSLKASDTAMYYCARSTGSSHMSDEWGQGTLVTVSS
notes: as for B2
B11: ET200-028 scFv (scFv)
scFv: QSVLTQPPAASGTPGQRVTISCSGGVSNIGSGALNWYQQLPGTAPKLLIYSYNQRPSGVSDRFSGSRSATSASLAISGLQSEDEADYYCATWDDSVNGWVFGGGTKLTVLGSRGGGGSGGGGSGGGGSLEMAQVQLVQSGAEVKKPGDSVKVSCKPSGYNFLNYGINWVRQAPGQGLEWMGWISTYTGNTNYAQKLQGRVTFTTDTSTSTAYMEMRSLRSDDTAVYYCARDLYYYEGVDYWGQGTLVTVSS
notes: as for B2
B12: ET200-069 scFv (scFv)
scFv: QSVVTQPPSASGTPGQRVTISCSGSSSNIGSNYVYWYQQLPGTAPKLLIYSNNQRPSGVPDRFSGSKSGTSASLAISGLRSEDEADYYCAAWDDSLSGYVFGTGTKLTVLGSRGGGGSGGGGSGGGGSLEMAQVQLQQWGAGLLKPSETLSLTCAVYGGSFSGYYWSWIRQPPGKGLEWIGEINHSGSTNYNPSLKSRVTISVDTSKNQFSLKLSSVTAADTAVYYCARLYEGGYHGWGSWLSSDSWGQGTLVTVSS
notes: VL-linker-VH; screened as scFv phage clone; also called ET200-69
B13: ET200-033 scFv (scFv)
scFv: NFMLTQPHSVSESPGKTVTISCTGSSGSIASNYVQWYQQRPGSAPTTVIYEDNQRPSGVPDRFSGSIDSSSNSASLTISGLKTEDEADYYCQSYDSSNHWVFGGGTKLTVLGSRGGGGSGGGGSGGGGSLEMAQVQLQQWGAGLLKPSETLSLTCAVYGGSFSGYYWSWIRQPPGKGLEWIGEITHSGRSNYNPSLKSRVTISVDTSKNQFSLKLSSVTAADTAVYYCARSSIMSDYWGQGTLVTVSS
notes: as for B2
B14: ET200-038 scFv (scFv)
scFv: QSVLTQPPSVSGAPGQRVTISCTGSSSNIGAGFDVHWYQLLPGTAPKLLIYANSNRPSGVPDRFSGSKSGTSASLAITGLLAEDEADYYCQSYDSSLSGVVFGGGTKLTVLGSRGGGGSGGGGSGGGGSLEMAQVQLVQSGAEVKKPGSSVKVSCKASGGTFSSYAISWVRQAPGQGLEWMGGIIPIFGTANYAQKFQGRVTITADESTSTAYMELSSLRSEDTAVYYCARGASFDRHDNWGQGTLVTVSS
notes: as for B2
B15: ET200-079 scFv (scFv)
scFv: SYELTQPPSASGTPGQRVTISCSGSSSNIGSNYVYWYQQLPGTAPKLFIYRNNQRPSGVPDRFSGSKSGTSASLAISGLRSEDEADYYCAAWDDSLSGYLFGTGTKVTVLGSRGGGGSGGGGSGGGGSLEMAEVQLVESGGGLVQPGRSLRLSCAASGFTFDDYAMHWVRQAPGKGLEWVSGISWNSGSIGYADSVKGRFTISRDNAKNSLYLQMNSLRAEDTALYYCANGDSNYYYGMDVWGQGTTVTVSS
notes: as for B2
B16: ET200-045 scFv (scFv)
scFv: QPVLTQPPSVSVAPGKTATITCGGNNIGSESVHWYHQKPGQAPVLVIYDDAGRPSGIPERFTGSNSGNTATLTISRVEAGDEADYYCQVWDRNSAQFVFGPGTKVTVLGSRGGGGSGGGGSGGGGSLEMAEVQLVQSGAEVKKPGASVKVSCKASGYTFTSYGISWVRQAPGQGLEWMGWISAYNGNTNYAQKLQGRVTMTTDTSTSTAYMELRSLRSDDTAVYYCARGVHLDWWGQGTLVTVSS
notes: as for B2
B17: ET200-030 scFv (scFv)
scFv: QSVVTQPPSVSGAPGQRVTISCTGSSSNIGAGYDVNWYQQFPGTAPKLLIYGNSNRPSGVPDRFSGSKSGTSASLAITGLQAEDEADYYCQSYDSSLSGSYVFGTGTKVTVLGSRGGGGSGGGGSGGGGSLEMAQMQLVQSGAEVKKPGASVKVSCKASGYTLTELSMHWVRQAPGKGLEWMGGFDPEDGETIYAQKFQGRVTMTEDTSTDTAYMELSSLRSEDTAVYYCARMSSMYYDWGQGTLVTVSS
notes: as for B2

The assay concerns the target T1, human Fc Receptor-Like 5 (FcRL5), full …. Description: scFv phage: ELISA on His-tag FcRL5, flow cytometry on FcRL5-overexpressing 3T3 and Raji cells. (In general: ELISA stands for enzyme-linked immunosorbent assay.)
As to B1, the binding result is “binds”. For the molecule B2, the binding result is “binds”. B3: the binding result is “binds”.

For B4, the binding result is listed as “binds”. For the molecule B5, the binding result is “binds”. As to B6, the binding result is reported as “binds”. Take B7: the binding result is “binds”. As for B8, the entry is “binds”. Regarding B9, the binding result is on record as “binds”. Take B10: the binding result is recorded as “binds”. For the molecule B11, the binding result is reported as “binds”. For the molecule B12, the binding result is recorded as “binds”. In the case of B13, the binding result is on record as “binds”.

In the case of B14, the binding result was “binds”. With B15, the binding result was “binds”. In the case of B16 it was “binds”; in that of B17, “binds”.
